Source: article PMC4287450, “PRDM9 Drives Evolutionary Erosion of Hotspots in Mus musculus through Haplotype-Specific Initiation of Meiotic Recombination”

B1: chr1_185 oligo 2 (dsDNA)
DNA 1: AGAGAGAAAAAAAACTAAAGTTACAGTAGCTTCATGTTGTAGATGGGTATATACCGCT
DNA 2: AGCGGTATATACCCATCTACAACATGAAGCTACTGTAACTTTAGTTTTTTTTCTCTCT
B2: chr1_158 oligo 1 (dsDNA)
DNA 1: CGTCTGCTCTCTGTAGGAAGTGCTCCATGGACAGTAGCTTCTGCCTTTCCTT
DNA 2: AAGGAAAGGCAGAAGCTACTGTCCATGGAGCACTTCCTACAGAGAGCAGACG
B3: chr1_185 oligo 1 (dsDNA)
DNA 1: TCCCAGGACTATGAGTTTAGAGAGAAAAAAAACTAAAGTTACAGTAGCTTCATGTTG
DNA 2: CAACATGAAGCTACTGTAACTTTAGTTTTTTTTCTCTCTAAACTCATAGTCCTGGGA

Biological target: PRDM9Dom2 (Mus musculus domesticus (B6 allele), UniProt Q96EQ9 513-843)
Sequence (Q96EQ9 513-843): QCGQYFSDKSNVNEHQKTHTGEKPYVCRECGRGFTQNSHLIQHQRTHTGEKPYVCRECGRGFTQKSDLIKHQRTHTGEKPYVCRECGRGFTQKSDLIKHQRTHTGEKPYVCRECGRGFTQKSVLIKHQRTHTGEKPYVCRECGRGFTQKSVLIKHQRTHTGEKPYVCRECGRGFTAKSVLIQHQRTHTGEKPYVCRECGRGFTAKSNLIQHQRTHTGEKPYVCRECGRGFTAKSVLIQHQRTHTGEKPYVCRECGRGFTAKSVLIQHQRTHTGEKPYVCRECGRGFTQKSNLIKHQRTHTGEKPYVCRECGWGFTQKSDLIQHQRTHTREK
Assay: competition; 20x unlabeled vs labeled CAST DNA; EMSA as in Billings et al. 2013 (buffer, pH, temperature not given); unlabeled competitor dsDNA at 20x labeled DNA
Details: protein: recombinant; blunt

Binding result, binds:
B1, B2, B3
